1 substance from paper PMC7405809 can be followed below.

Experiment [1] addresses BFL-1ΔC C4S/C19S conjugated to 4E14 at C55 (UniProt Q16548). Briefly: fluorescence polarisation. (In general: Fluorescence polarisation rises when a labelled molecule tumbles more slowly, as on binding a larger partner.)
The next experiment deals with His6-BFL-1ΔC C4S/C19S (UniProt Q16548). Briefly: fluorescence polarisation.

As for FITC-BID BH3 peptide, the figures for the EC50 (in experiment [1]; in the experiment with His6-BFL-1ΔC C4S/C19S) were 1300 nM and 23 nM, respectively.

The EC50 is the concentration needed to bring the measured effect to its halfway point. Higher therefore signals a need for much substance.
